This data set is described as follows: yeast display, Sf9 membrane polyspecificity reagent, FACS + sequencing; frameworks hold sequencing errors. An outline of the steps:
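Galactose induction of a Saccharomyces cerevisiae BJ5465 synthetic nanobody display library ran 36–48 hours. The cells were then stained for 1 hour at 4 °C with 10% biotinylated, detergent-solubilized Sf9 membrane reagent, pulled down on streptavidin microbeads and FACS-sorted into low and high (top ~1%) gates on expression and reagent-binding fluorescence. Labels for polyreactivity follow the gate of origin.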
Turning to “QVQLVESGGGLVQAGGSLRLSCAASGRIFVSYAMGWYRQAPGKERELVAAISRGGSTYYADSVKGRFTISRDNAKNTVYLQMNSLKPEDTAVYYCAARPSYRYGYWGQGTQVTVSS”, the “polyreactivity (PSR sort gate)” value was “high polyreactivity”.
The result for “QVQLVESGGGLVQAGGSLRLSCAASGNIFYVYVMGWYRQAPGKERELVASITSGASTYYADSVKGRFTISRDNAKNTVYFQMNSLKPEDTAVYYCAAEALGGAGDYSTLYIYDYWGQGTQVTVSS” reads “low polyreactivity”; that for “QVLLQESVGGLVQAGGSLRLGCAASGTISPAYYMGRYQQEPGKVRQFVAAITYGTNTYYADSVKGRFTISRDNAKNTVYLQMNSLKPEDTAVYYCSATAGYNGAHDYWGQGTQVTVSS”, “low polyreactivity”.
The result for “QGQHVESGGGLVQAGGSLRLSCAASGSIFAAYAMGWYRQATGKERELVAPIDRGGSTDYADSVKGRFTISRDNAKNTVFLPMNSLKPEDTAVYYCDKGYDYYVRRYYYWGQGTQVTGSS” reads “high polyreactivity”; that for “QVQLVESGGGLVQAGGRLRLSCAASGRIFSAYAMGWYRQAPGKERELVAAISRSGGRTYYADSVKGRFTISRDNAKNTVYLQMNSLKPEDTAVYYCAAARFAIVRGDYWGQGTQVTVSS”, “high polyreactivity”; that for “QVQLVESGGGLVQAGGSLRLSCAASGSTLNVNAMGWYRQAPGKERELVAAITSGGSTYYADSVKGRFTISRDNAKNTVYLQMNSLKPEDTAVYYCNKRRSWRPTYPFGGSGFYYWGQGTQVTVSS”, “low polyreactivity”.
“QVQLVESGGGLVQAGGSLRLSCAASGSTFLDYAMGWYRQAPGKERELVAAITSGGSTYYADSVKGRFTISRDNAKNTVYLQMNSLKPEDTAVYYCAAEQTQLYSFGWDEYWGQGTQVTVSS”: the “polyreactivity (PSR sort gate)” value was “low polyreactivity”.
As for “QVQLVESGGGLVQAGGSLRLSCAASGFTFRRNAMGWYRQAPGKERELVAAITYNGGTTYYADSVKGRFTISRDNAKNTVYLLMNSLKPEDTAVYYCNAPYGRQGYDYWGQGTQVTVSS”, the “polyreactivity (PSR sort gate)” value was “low polyreactivity”.
The result for “QVQLVESGGGLVQAGGSLRLSCAASGYIFEYYAMGWYRQAPGKERELVAAISWSGGSTYYADSVKGRFTISRDNAKNTVYFQLNSLKPVDTAVYYCAAEYVTYQQGLWGYDYWGQGTQVTVSS” reads “low polyreactivity”; that for “QVQLVESGGGLVQAGGSLRLSCAASGSTSDLYAMGWYRQAPGKERELVAAITWSGDSTYYADSVKGRFTISRDNAKNTVYLQMNSLKPEDTAVYYCNAEYYDYFDYESDYWGQGTQVTVSS”, “low polyreactivity”; that for “QVQLVESGGGLVQAGGSLRLICAASGNIFYRYAMGWYRQAPGKERELVAAISGNSGNTYYADSVKGRFTISRDNAKNTVYLQMNSLKPEDTAVYYCNARVVVRRDYWGQGTQVTVSS”, “high polyreactivity”.
The result for “QVQLVESAGGLVQAGGSLRLSCAASGRTSVIYAMGWYRQAPGKERELVASIRRGGSTSYADSVKGRFTISRDNAKNTVYLQMNSLKPEDTAVYYCARETLGGTYLGDYWGQGTQVTVSS” reads “high polyreactivity”; that for “QVQLGETGGGLVQAGGSLRLSCAASGFNFGYYVMGWYRQAPGKERELVAAITSGGSKYYADSVKGRFTISRDNAKNTVYLQMNSLKPEDTAVYYCNKYGVVLPGFDEWGQGTQVTVSS”, “high polyreactivity”.
Take “QVQLEESGGGLVQAGGSLRISCAASGFTFKYYVMGWYRQAPGKERFVAAITGSGASTYYADSVKGRFTISRDNAKNTVYLQMNSLKPEDTAVYYCNAVYYAGRYRYDYWGQGTQVTVSS”: the “polyreactivity (PSR sort gate)” value was “high polyreactivity”.
The result for “QVQLVESGGGLVQAGGSLSLSCAASGFNFGVNTRGWDRQAPGKERELVAAITGSGSSTDYADSVKGRFTISRDNAKNPVYLQMHRLKPEDTAVYYCAASYYSNYPTYLRYYDWGQGTQVTVSS” reads “high polyreactivity”.
The result for “QVQLVESGGGIVQAGGSLRLSCAASARIFGYNAMGWYRQAPGKERELVADITGSGGSTYYADSVKGRFTISRDNAKNTVYLQMNSLKPEDTAVYYCATPYAVYHVEYGYWGQGTQVTVSS” reads “low polyreactivity”; that for “QVQLVESGGGLVQAGGSLRLSCAASGSIFYVYAMGWYRQAPGKERELVAAINTAGGSTFYADSVKGRFTISRDNAKNPVSLQMTSLKPEETAVYYCAAERYRYRSTDTMGYWGQGTQVTVSS”, “low polyreactivity”.
The result for “QGQLVESGGGLVQAGGSLRLSCAASGITYYKYVMAWYIQAPGKERELVAAISRSSGSTYYADSVKGRFTISRDNAKNTVYLQMNSLKPEDTAVYYCARDQGKLVVPYDYWGQGTQVTVSS” reads “high polyreactivity”; that for “QVQLVESGGGLVQAGGSLRLSCAASGRIFHTYGMGWYRQAPGKERELVAAITWTGGSTYYADSVKGRFTISRDNAKNTVYLQMNSLKPEDTAVYYCAADYPRDIIGSMDYWGQGTQVTVSS”, “low polyreactivity”; that for “QEQLQESGGGLVQAGGSLRLSCAASGNISTHQLYMGSYRQAPGKEREFVAAINFGASTYYADSVKGRNTISRDNAKYTVYLQMNSLKPEDTAVYYCNADWYYYYEVDDYWGQGTQVTVSS”, “low polyreactivity”.
As for “QVQLVESGGGLFQAGGSLRLSCAASGSTFAFYDMGWYRQATGIERELVAIIDWSGGRTYYADSVKGRFTISRDNAKHTVYLQMNSLKPQDTAVYYCAVDYEYVGGDYWGQGTQVTVSS”, the “polyreactivity (PSR sort gate)” value is “low polyreactivity”.
“QVQLVESGGGLVQAGGSLRLSCAASGRILNVYAMGWYRQAPGKERELHAAINYRGTNTYYADSVKGRFTISRDNAKNTVFLQMNSLKPEDTAVYYCAAERWYYNVYAEYSWGQGTQVTVSS”: the “polyreactivity (PSR sort gate)” value is listed as “high polyreactivity”.
For the sequence “QVQLVESGGGLVQAGGSLRLSCAASGFIFVKYAMGWYRQAPGKEREFVAAISQSGGNTYYADSVKGRFTISRDNAKNTVYLQMNSLKPEDTAVYYCNAKSYTRRSYYTPTVPGDYWGQGTQVTVSS”, the “polyreactivity (PSR sort gate)” value is “low polyreactivity”.
The result for “QVQLVESGGGLVQAGVSLRLSCAASGRTFYVNAMGWYRQAPGKERELVAAISYSDGITYYADSVKARFTISRDNAKNTVYLQMNSLKPEDTAVYYCAAEGYHYYSQRAGVDYWGQGTQVTVSS” reads “high polyreactivity”.
The result for “QVQLVESGGGLVQAGGSIRLSCAASGFIFKWYAMGWYRQAPGKERELVAVINRSGSTYYADSVKGRFTISRDNAKNTVYLQMNSLKPEDTAVYYCAAVQQYSSVYYYTYDYWGQGTQVTVSS” reads “high polyreactivity”; that for “QVQLVESGGGLVQAGGSLRLSCAASGRTLYRYTMGWYRQAPGKERELVAAISRGGSTYYADSVKGRFTISRDNAKNTVYLQMNSLKPEDTAVYYCAAVYSYTSWQTWWPEYDYWGQGTQVTVSS”, “high polyreactivity”.
The result for “QVQLVESGGGLVQAGGSLRLSCAASGFTFPSYAMGWYRQAPGKERELVAAISQRGGSTYYADSVKGRFTISRDNAKNTVYLQMNSLKPEDTAVYYCAALAPRTGRPTYGYWGQGTQVTVSS” reads “low polyreactivity”; that for “QVQLVESGGGLVQAGGSLRLSCAASGRTFNGYAMGWYRQAPGKERELVASITLRGGSTYYADSVKGRFTISRDNAKNTVYLQMNSLKPEDTAVYYCAVGKFVRYPGRWRYRYDYWGQGTQVTVSS”, “high polyreactivity”.
Consider “QVQLVESVGGLVQAGGSLRLSCAASGSTFKYNAMGWYRQAHGKERELVAAISRRGGSTYYADSVKGRFTISRDNAKNTVYLQMNSLKPDETAVYYCAADIIRPVTVDYWGQGTQVTVSS”, for which the “polyreactivity (PSR sort gate)” value is given as “high polyreactivity”.
The result for “QVQRVESAGGLVQAGGSLRLSSAASGFTFRRYAMGWYRQARGKERELVARITWSGTSTDYADSEKGRFTISRDNAKNTVYLQMNSLKPEDTAVYYCAKAYTPWSGRYFAGVGYYYWGQGTQVTVSS” reads “high polyreactivity”; that for “QVQLVESGGGLVQAGGSLRLSCSASGRTFTPYAMGWYRQAPGKEREFVAAISIVGRTKYADSVKGRFTISPDNAKNTFYFQMNSLKPEDTAVYYCNAQDSRDRKFYWGYTRGHWGQGTQVTVSS”, “low polyreactivity”; that for “QVQLVESGGGLVQAGGSLRLSCAASGRIIYRYAMGWYRQAPGKERELVAAISYRGGSTYYADSVKGRFTISRDNAKNTVYLQMNSLKPEDTAVYYCAADRRYYDWRYGGFDYWGQGTQVTVSS”, “high polyreactivity”.
The result for “QVQLVESGGGLVQAGGSLRLSCAASGRTFGNYAMGWYRQAPGTERELVASITYTVGNTYYADSVKGRFTISRDNAKNTVYIQMNSLKPEDTAVYYCAADGFYLQFYHYDYWGQGTQVTVSS” reads “low polyreactivity”; that for “QVKLVESGGCLVQEGGSHRLSCAASGYIFDAYAMGWYRQAPGQERELVAAIDIGGSTYYADSVKGRFTISRDNAKNTVYLQMNSLKPEDTAVYYCAVWFYFDQWDYAREYWGQGTQVTVSS”, “low polyreactivity”.
In the case of “QVQLGESGGGLVQAGGSLRLSCAASGSISTYYPMGWYRQATGKERELVASITSRASTNYADSVKGRFTISRDNAKNTVYLQMNSLKPEDTAGNYCNADQRDYGSYVTKLDYWGQGTQVTVSS”, the “polyreactivity (PSR sort gate)” value is reported as “low polyreactivity”.
In the case of “EVQLVESGGGLVQAGGSLRLSCAASGRTIGFNGMAWYRQAPGKERELFAAITRSGGNTYADSVKGRFTISRDNAKNTVYLQMNSLNPEDSAVYYCATTYVGETLTGPGDYWGQGTQVTVSS”, the “polyreactivity (PSR sort gate)” value is reported as “low polyreactivity”.
In the case of “QVQLVESGGGLFQAGGSLRLSCAASGSIFERYTMGWYRQSPGKERELVAAISRSGGRTYYADSVKGRFTISRDNAKNTVYLQMNSLKAEDTAVYYCARTRVASKGYDYWGQGTQVTVSS”, the “polyreactivity (PSR sort gate)” value was “high polyreactivity”.
The result for “QVHLVESGGGLVQAGGSLRLSCAASGITFDEYTMGWYRQAPGKERELVAAIDSDGSTTYADSVKGRFTISRDNAKNTVYLQMNSLKPEDSAVYYCNAEHGDFSWHYLLYDYDYWGPGTQVTVSS” reads “low polyreactivity”; that for “QVQLLESGGGLVQAGGSLRLSCAASGRTFTSNVMGWYRQAPGKERELVAAISSSGGRTYYADSVKGRFTISRDNAKNTVYLLMNSLKPEDTAVYSCAADGYPEYPRYGYWGQGTQVTVSS”, “high polyreactivity”; that for “QVQLVESGGGLVQAGGSLRLSCAAAGRIFGINALGWYRQAPGKERELVAAISWRSGSTYYADSVKGRFTISRDNAKNTVYLQMNSLKPEATAVYYCAARYFVRNYYQNDYWGQGTQVTVSS”, “low polyreactivity”.
With “QVQLVESGGGLVQAGGSLRLSCDASGIIFFIYTMGWYRQAPGKERELVAVITRGGRTKYADSVKGRLTISRDNAKNTVFLQMNRLNPEDNAVYYCAAKGSRSYYWGQGTHVTVSS”, the “polyreactivity (PSR sort gate)” value was “low polyreactivity”.

For the origin of these results see the nanobody polyreactivity screen of Harvey et al. (2022).
